Laboratory results: patent US20180292409A1 (REGENTS OF THE UNIVERSITY OF MINNESOTA, published 2018)

Target: T1, progesterone receptor (PR) (human, UniProt P06401 1-933, limits assumed)
T1 construct: also called total PR; PR-A
T1 sequence (looked up): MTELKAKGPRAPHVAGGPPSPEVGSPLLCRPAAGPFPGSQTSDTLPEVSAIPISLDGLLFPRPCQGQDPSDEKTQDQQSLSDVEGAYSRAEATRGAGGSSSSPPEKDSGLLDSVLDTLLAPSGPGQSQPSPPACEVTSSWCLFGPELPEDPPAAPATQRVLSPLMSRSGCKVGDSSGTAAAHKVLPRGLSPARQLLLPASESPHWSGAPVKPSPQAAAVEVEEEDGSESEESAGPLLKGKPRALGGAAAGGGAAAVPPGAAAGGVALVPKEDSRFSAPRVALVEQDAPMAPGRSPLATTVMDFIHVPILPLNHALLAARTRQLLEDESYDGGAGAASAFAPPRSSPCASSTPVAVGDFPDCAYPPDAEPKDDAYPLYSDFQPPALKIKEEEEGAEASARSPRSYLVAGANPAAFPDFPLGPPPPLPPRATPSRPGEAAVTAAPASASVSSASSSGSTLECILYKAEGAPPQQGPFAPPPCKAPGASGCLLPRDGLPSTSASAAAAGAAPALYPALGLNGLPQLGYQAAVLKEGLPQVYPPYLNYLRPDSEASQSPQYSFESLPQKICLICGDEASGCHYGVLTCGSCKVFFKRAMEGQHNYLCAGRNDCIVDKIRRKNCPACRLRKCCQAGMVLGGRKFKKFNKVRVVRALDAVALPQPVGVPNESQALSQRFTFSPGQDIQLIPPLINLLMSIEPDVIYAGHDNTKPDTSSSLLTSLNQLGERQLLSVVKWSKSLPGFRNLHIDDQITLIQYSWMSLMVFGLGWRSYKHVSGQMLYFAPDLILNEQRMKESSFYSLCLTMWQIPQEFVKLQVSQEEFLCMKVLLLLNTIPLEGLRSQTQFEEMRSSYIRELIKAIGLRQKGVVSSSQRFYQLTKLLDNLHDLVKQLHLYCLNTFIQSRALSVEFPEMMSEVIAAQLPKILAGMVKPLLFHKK
Assay: co-immunoprecipitation from breast cancer cell whole cell lysates

B1: RUNX2 (other, UniProt Q13950 1-521, looked up)
chain: MASNSLFSTVTPCQQNFFWDPSTSRRFSPPSSSLQPGKMSDVSPVVAAQQQQQQQQQQQQQQQQQQQQQQQEAAAAAAAAAAAAAAAAAVPRLRPPHDNRTMVEIIADHPAELVRTDSPNFLCSVLPSHWRCNKTLPVAFKVVALGEVPDGTVVTVMAGNDENYSAELRNASAVMKNQVARFNDLRFVGRSGRGKSFTLTITVFTNPPQVATYHRAIKVTVDGPREPRRHRQKLDDSKPSLFSDRLSDLGRIPHPSMRVGVPPQNPRPSLNSAPSPFNPQGQSQITDPRQAQSSPPWSYDQSYPSYLSQMTSPSIHSTTPLSSTRGTGLPAITDVPRRISDDDTATSDFCLWPSTLSKKSQAGASELGPFSDPRQFPSISSLTESRFSNPRMHYPATFTYTPPVTSGMSLGMSATTHYHTYLPPPYPGSSQSQSGPFQTSSTPYLYYGTSSGSYQFPMVPGGDRSPSRMLPPCTTTSNGSTLLNPNLPNQNDGVDADGSHSSSPTVLNSSGRMDESVWRPY
notes: also called runt-related transcription factor 2
- binding result: no binding
